Results reported in PMC8844822, “SARM1 is a multi-functional NAD(P)ase with prominent base exchange activity, all regulated bymultiple physiologically relevant NAD metabolites” (iScience, 2022).

Tested on: T1, NC(=O)c1ccc[n+]([C@@H]2O[C@H](COP(=O)([O-])OP(=O)(O)OC[C@H]3O[C@@H](n4cnc5c(N)ncnc54)[C@H](O)[C@@H]3O)[C@@H](O)[C@H]2O)c1
T1 construct: a soluble fragment Val43-Ile300 with 6x-His tag at C terminus; 6xHis (C); purchased R&D Systems
Experiment: NAD(P)ase activity by HPLC (kinetics, substrates, metal ions)
Type: biochemical, human
Settings: other: hCD38, substrate as labelled, 25°C, pH 7.5
Description: hSARM1 species were routinely assayed by the NAD/NADH-Glo^TM Assay (Promega) while both Aplysia cyclase and CD38 were assayed by fluorometry using ϵNAD ([Orsomando et al., 2000]). […] Other reagents used in addition to, or in place of those above are detailed in text or in figure legends, for example metal ions, free bases, dinucleotide analogues, mononucleotides, and ribosides. Assays were all carried out at 25°C except for temperature studies. Reactions were stopped by HClO4/K2CO3 and analysed by C18-HPLC as reported ([Mori et al., 2014]). Only the acid labile NADH and NADPH were treated with 1 N NaOH and neutralized using 1:1 vol of 1.73 M KH2CO3 while the highly hydrophobic metabolites vacor, VAD, VMN and VR, were analysed by a modified C18-HPLC method ([Buonvicino et al., 2018]). Reaction products were quantified from peak areas (see Figure 2A) based on coelution with standards (except for cyclic products from NAD analogues that were not available and were attributed based on UV-spectra and retention times as predicted). Rates were calculated as follows. Hydrolysis and cyclization were measured from product generation from the respective individual dinucleotide substrate used, e.g., free and cyclic ADP-ribosyl moieties from NAD (Figure 1B). A basal value for hydrolysis/cyclization was taken as sum of these latter two products. […]

Work on human CD38 (Homo sapiens) yielded a Km of 10.4 ± 2.90 µM and a Vmax of 6.65 µmol/min/mg.
